Molecular target: T1, Atg7, endogenous in mouse heart, Q9D906
T1 chain: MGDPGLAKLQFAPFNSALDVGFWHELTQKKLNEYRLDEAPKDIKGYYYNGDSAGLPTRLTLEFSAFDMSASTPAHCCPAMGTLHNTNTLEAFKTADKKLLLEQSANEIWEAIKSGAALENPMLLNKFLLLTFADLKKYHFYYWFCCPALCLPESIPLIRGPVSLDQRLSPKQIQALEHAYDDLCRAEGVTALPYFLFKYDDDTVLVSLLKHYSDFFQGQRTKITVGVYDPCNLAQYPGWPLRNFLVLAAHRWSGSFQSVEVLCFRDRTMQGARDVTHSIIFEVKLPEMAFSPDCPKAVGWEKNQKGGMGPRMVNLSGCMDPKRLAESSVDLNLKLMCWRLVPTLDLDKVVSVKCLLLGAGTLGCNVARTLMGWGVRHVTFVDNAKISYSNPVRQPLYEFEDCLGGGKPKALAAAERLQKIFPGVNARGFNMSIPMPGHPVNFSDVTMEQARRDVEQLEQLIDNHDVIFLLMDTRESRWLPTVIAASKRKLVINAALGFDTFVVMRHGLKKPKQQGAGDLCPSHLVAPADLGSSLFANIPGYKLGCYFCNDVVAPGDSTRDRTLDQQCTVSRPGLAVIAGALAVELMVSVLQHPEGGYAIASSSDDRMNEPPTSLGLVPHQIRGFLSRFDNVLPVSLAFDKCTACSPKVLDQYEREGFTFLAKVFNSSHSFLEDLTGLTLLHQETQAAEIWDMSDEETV
Assay: coimmunoprecipitation with anti-FLAG-agarose beads, immunoblot for Atg7, quantified
Conditions: chain shown with the change, Tg-Flag-Trx1 C35S mouse heart, n = 4, read off a plot

B1: Trx1 (wild type) C35S (protein)
chain: MVKQIESKTAFQEALDAAGDKLVVVDFSATWCGPSKMIKPFFHSLSEKYSNVIFLEVDVDDCQDVASECEVKCMPTFQFFKKGQKVGEFSGANKEKLEATINELV
- response (Arbitrary unit) (ischemia for 20 minutes): 0.8
- response (Arbitrary unit) (sham operation): 0.55
